The record followed here is patent US20250333501A1.

For experiment [1], the target named is CLDN6 endogenously expressed by human cancer cell lines (ARK2, OVCA429) (human) (UniProt P56747). Briefly: FACS, 1.5 µg Ab, ARK2 cells.
The target is the same in experiment [2]. Briefly: FACS, 0.3 µg Ab, ARK2 cells.
Experiment [3] has the same target. Briefly: FACS, 1.5 µg Ab, OVCA429 cells. For orientation: Flow cytometry measures light scatter and fluorescence of single cells or particles in a stream.
In experiment [4] the target is human CLDN6 fused to GFP, expressed on engineered HEK293T cells (HEK293T-CLDN6-mGFP) (human) (UniProt P56747). Description: FACS, 0.3 µg Ab, 293T clone with human CLDN6.
human CLDN6 fused to GFP, expressed on engineered HEK293T cells (HEK293T-CLDN6-mGFP) (human), sequence (P56747 whole entry, change not shown, the tested form may be a part): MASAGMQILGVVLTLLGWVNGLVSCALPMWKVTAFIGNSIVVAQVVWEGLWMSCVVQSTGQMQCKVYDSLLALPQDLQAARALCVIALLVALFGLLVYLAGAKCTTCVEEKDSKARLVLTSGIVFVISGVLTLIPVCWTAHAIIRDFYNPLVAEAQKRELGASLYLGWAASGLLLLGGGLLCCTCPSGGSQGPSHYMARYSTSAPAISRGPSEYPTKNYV
Experiment [5] addresses mouse CLDN6 fused to GFP, expressed on engineered HEK293T cells (mouse) (UniProt Q9Z262). Description: FACS, 293T clone with mouse CLDN6, dose not given.
For experiment [6], the target named is human CLDN6 fused to GFP, expressed on engineered HEK293T cells (HEK293T-CLDN6-mGFP) (human) (UniProt P56747). Briefly: FACS, 1.5 µg Ab, 293T clone with human CLDN6.

CLDN6 endogenously expressed by human cancer cell lines (ARK2, OVCA429) (human), sequence (P56747 whole entry): as the sequence (P56747 whole entry, change not shown, the tested form may be a part) above
mouse CLDN6 fused to GFP, expressed on engineered HEK293T cells (mouse), sequence (Q9Z262 whole entry, change not shown, the tested form may be a part): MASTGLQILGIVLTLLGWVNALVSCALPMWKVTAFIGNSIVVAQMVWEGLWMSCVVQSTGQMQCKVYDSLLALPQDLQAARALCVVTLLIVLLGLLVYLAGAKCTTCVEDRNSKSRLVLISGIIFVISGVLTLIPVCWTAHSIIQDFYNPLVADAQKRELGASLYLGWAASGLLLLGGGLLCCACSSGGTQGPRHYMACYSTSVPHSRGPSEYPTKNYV

With 2nd Ab only (antibody), the FACS fluorescence in experiment [1] stood at 1350; in experiment [2], 1350; in experiment [3], 886; in experiment [4] it was 768; in experiment [5], 1060; in experiment [6], 768.
